Laboratory results from patent US20250197503A1, “ANTI-HUMAN PD-Ll AND TLR7 DOUBLE-TARGETING NANOBODY CONJUGATE DRUG AND USE THEREOF IN RESISTING TUMOR” (SHANGHAI INSTITUTE OF MATERIA MEDICA , CHINESE ACADEMY OF …, priority 2022, published 2025).

Target: human PD-L1 (human) (UniProt Q9NZQ7)
Assay: FACS blocking of human PD-1/PD-L1 binding

Sequence of human PD-L1 (human) (Q9NZQ7 19-290): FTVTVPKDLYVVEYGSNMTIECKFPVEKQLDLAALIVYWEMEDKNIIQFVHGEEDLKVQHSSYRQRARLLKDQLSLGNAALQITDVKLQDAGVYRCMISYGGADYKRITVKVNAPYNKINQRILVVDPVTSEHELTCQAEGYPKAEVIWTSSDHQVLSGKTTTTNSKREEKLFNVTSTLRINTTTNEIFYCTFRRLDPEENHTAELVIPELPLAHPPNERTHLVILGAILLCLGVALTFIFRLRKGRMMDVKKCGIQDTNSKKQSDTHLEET

KN035
IC50: 0.208 µg/mL
